We go through one molecule from publication PMC3509445 (Biology Open, 2012).

One test concerns the target GST-TLX ΔN (Δ1-187) (mouse, UniProt Q64104 188-385). The test can be described thus: pull-down.
Another test has as its target GST-TLX ΔC341-385 (mouse, UniProt Q64104 1-340). Briefly: pull-down.

Chain of GST-TLX ΔN (Δ1-187) (Q64104 188-385, stated change not applied): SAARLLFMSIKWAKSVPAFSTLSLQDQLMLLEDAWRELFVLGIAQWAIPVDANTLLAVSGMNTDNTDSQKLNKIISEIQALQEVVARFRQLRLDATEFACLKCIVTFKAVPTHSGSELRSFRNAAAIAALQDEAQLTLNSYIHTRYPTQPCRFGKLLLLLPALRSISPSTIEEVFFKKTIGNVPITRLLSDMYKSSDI
Chain of GST-TLX ΔC341-385 (Q64104 1-340, stated change not applied): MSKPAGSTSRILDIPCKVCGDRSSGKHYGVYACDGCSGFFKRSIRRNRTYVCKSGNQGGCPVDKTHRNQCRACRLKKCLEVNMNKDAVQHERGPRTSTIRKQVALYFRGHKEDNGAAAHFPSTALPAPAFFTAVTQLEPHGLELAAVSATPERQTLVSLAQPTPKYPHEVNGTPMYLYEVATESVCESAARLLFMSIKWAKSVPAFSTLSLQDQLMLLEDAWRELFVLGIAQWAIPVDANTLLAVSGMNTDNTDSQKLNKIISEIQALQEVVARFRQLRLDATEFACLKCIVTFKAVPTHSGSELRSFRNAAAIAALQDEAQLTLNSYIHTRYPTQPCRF

B1: ThioHis-VHL30Δ95-123 (natural protein, UniProt P40337-1 1-213, looked up)
chain: MPRRAENWDEAEVGAEEAGVEEYGPEEDGGEESGAEESGPEESGPEELGAEEEMEAGRPRPVLRSVNSREPSQVIFCNRSPRVVLPVWLNFDGETHDGLLVNQTELFVPSLNVDGQPIFANITLPVYTLKERCLQVVRSLVKPENYRRLDIVRSLYEDLEDHPNVQKDLERLTQERIAHQRMGD
Turning to B1, the binding result with GST-TLX ΔN (Δ1-187) and in the test with GST-TLX ΔC341-385 was “binds” each time.
